Data published in patent US8153597B2, “Modulators of the ABC transporter family and methods for their use” (priority 2003, dated 2012).
Like-named read-outs stand apart in the source and are kept apart here.

Experiments:
[1] = tested on: CFTR-mediated Cl− secretion; assay: Ussing chamber: CFTR-mediated Cl− secretion (Isc) across polarized CFBE41o− human airway epithelial cells; format: cell-based
Experimental: These experiments were conducted in CFBE41o− cells stably expressing either wt-CFTR or ΔF508-CFTR and in parental (non-transfected ΔF508/ΔF508) CFBE41o− cells. To increase apical membrane expression of ΔF508-CFTR, cells were grown at 27° C. for 36 hours in accordance with methods set forth in Example 5. […] Parental CFBE41o− cells, and CFBE41o− cells stably expressing either wt-CFTR or ΔF508-CFTR were incubated at 27° C. in a CO2 incubator in the absence of antibiotics. Vehicle or PA14 bacteria (5×10^8 CFU/ml) were added to the apical side of the monolayers.
Monolayers grown on Transwell (6.5 mm diameter) or Snapwell (12 mm diameter) permeable supports, as described in Example 1, were mounted in an Ussing-type chamber (Jim's Instruments; Iowa City, Iowa or Physiologic Instruments; San Diego, Calif.) and bathed in solutions, pH 7.4 maintained at 37° C. and stirred by bubbling with 5% CO2/95% air. Short circuit current (Isc) was measured by voltage-clamping the transepithelial voltage across the monolayers to 0 mV with a voltage clamp (model VCC MC6, Physiologic Instruments, San Diego, Calif.). Current output from the clamp was digitized by an analog-to-digital converter (iWorx; Dover, N.H.). Data collection and analysis were done with LabScribe v1.6 Software (iWorx; Dover, N.H.). Stimulated Isc was measured after addition of 100 μM CPT-cAMP (Calu-3 and MDCK cells) or 20 μM forskolin (wt-CFTR CFBE41o− cells) to the apical and basolateral bath solution or 50 μM genistein (ΔF508-CFTR CFBE41o− cells) to the apical bath solution. Net stimulated Isc (ΔIsc) was calculated by subtracting the baseline Isc measured before stimulation from the peak Isc measured after stimulation. Glybenclamide (200 μM) was added to the apical bath solution to inhibit CFTR-mediated Isc.
CFBE41o− cells were bathed in solutions with a basolateral-to-apical Cl− gradient in the presence of amiloride (100 μM) in the apical bath solution to inhibit Na+ absorption through the epithelial Na+ channel (ENaC). […]

[2] = tested on: wt-CFTR; assay: Cell-surface biotinylation: apical membrane expression of wt-CFTR in canine (MDCK) cells; format: cell-based; conditions: purified protein
Experimental: In these experiments two human cell lines endogenously expressing CFTR, Pgp, BCRP and MRP2, and polarized canine and rat cells stably expressing wild-type (wt)-CFTR and/or Pgp, were contacted with a pelleted fraction of either P. aeruginosa strain PA14 or eight different clinical isolates. Apical membrane expression of CFTR, Pgp, and MRP2 was measured by cell-surface biotinylation. Epithelial cells were then lysed and biotinylated proteins were isolated, separated and amounts of apical membrane expression of CFTR, PgP and MRP2 were determined.
Epithelial cell cultures were grown on Transwell permeable growth supports (24 mm diameter, 0.4 μm pore size; Corning Corporation, Corning, N.Y.: #3412). Apical membrane expression of CFTR, Pgp, MRP1, BCRP and MRP2 was measured by cell-surface biotinylation as described by Lisanti, et al. (J. Cell Biol. 1989 109:2117-2127) and Swiatecka-Urban et al. J. Biol. Chem. 2002 277(42):40099-105).
MDCK cells stably expressing GFP-wt-CFTR or GFP-ΔF508-CFTR fusion proteins were established and maintained in culture in a 5% CO2/95% air incubator at 37° C. in MEM complete medium containing 50 U/ml penicillin, 50 μg/ml streptomycin, 2 mM L-glutamine, 10% FBS, and 150 μg/ml G418. Addition of GFP to the N-terminus of CFTR has no effect on CFTR localization, trafficking, function as a Cl channel, or on its degradation. MDCK cells were seeded on Transwell permeable supports (0.2×10^6 on 6.5 mm and 24 mm diameter, 0.4 μm pore size; Corning Corporation; Corning, N.Y.) and grown in culture at 37° C. for 7-10 days. Under these conditions, MDCK cells become polarized. Sodium butyrate (5 mM; Sigma-Aldrich; St. Louis, Mo.) was added to the MDCK cell culture medium 16-18 hours before experiments to stimulate CFTR expression.
In these experiments, apical membrane proteins were biotinylated at 4° C. using a derivative of biotin (EZ-Link™ Sulfo-NHS-LC-Biotin: Pierce). […] Biotinylated CFTR, Pgp, BCRP and MRP-2 were analyzed by Western blotting using antibodies against CFTR, Pgp, and MRP-2, respectively. […]

[3] = Epoxide hydrolase activity assay, degradation of (S)-NEPC; format: biochemical; conditions: purified protein; 60 minute incubation period
Experimental: To assess whether Cif acts as an epoxide hydrolase, its ability to degrade the synthetic epoxide hydrolase substrate (2S,3S)-trans-3-Phenyl-2-oxiranylmethyl 4-nitrophenyl carbonate ((S)-NEPC) was assessed. This assay measures the production of the product p-nitrophenol, which is yellow in color and absorbs maximally at 405 nm.
Purified PA2934-His was assayed for its ability to degrade the epoxide hydrolase synthetic substrate (2S,3S)-trans-3-Phenyl-2-oxiranylmethyl 4-nitrophenyl carbonate ((S)-NEPC) (Sigma, St. Louis, Mo.). […] Degradation of (S)-NEPC was measured as an increase in absorbance at OD405 utilizing a Molecular Devices SpectraMax M2 plate reader. Reactions were normalized to controls lacking enzyme, accounting for spontaneous hydrolysis of the substrate.

[4] = tested on: MDCK-GFP-MDR1 cells; format: cell-based, canine; conditions: pre-treatment 60 min, then Dox (0, 1, 3, 5 or 10 μM) for 4 hrs at 37 C; buffer ˜5%
Source text: The studies above indicate that CIF reduces the plasma membrane expression of P-glycoprotein (i.e. Pgp or multidrug resistance protein (MDR)), MRP2, BCRP and other members of the ABC transmembrane protein family, whose functions include the transport of small molecules across cell membranes. More specifically, members of the ABC transporter family function by preventing therapeutics including but not limited to anti-cancer therapies and antibiotics from accumulating in the central nervous system, and by conferring the observed “drug resistance” of numerous cancers. […]
MDCK-GFP-MDR1 cells, MDCK-C7 cells stably transfected with GFP-Pgp under the transcriptional control of human MDR1 promoter as described by Maitra et al. (Biochem J 2001 355:617-624) were used in these studies. […] Cell viability was then assessed using the CellTiter 96Queous One Solution Cell Proliferation assay. After incubating for 4 hours at 37° C., the absorbance was determined at 490 nm.

Molecule | inhibition of forskolin stimulated CFTR-mediated Cl− ion secretion [1] [μA/cm^2] | effect on apical expression of CFTR [2] | reduction of apical expression of CFTR ([2]; 60 minutes after treatment) [%] | reduction of apical expression of CFTR ([2]; at 90 minutes) [%] | inhibition of forskolin stimulated CFTR-mediated Cl− ion secretion ([1]; WT-CFBE cells, added to apical face, 50 μg PA2934-His, CFTRinh-172 5 μM) [μA/cm^2] | reduction of CFTR Cl− currents ([1]; WT-CFBE cells, relative to CFTRinh-172-sensitive current) | epoxide hydrolase activity (degradation of (S)-NEPC, absorbance at 405 nm) [3] | reduction in cell viability [4] [%]
O=C(O)c1ccc(/C=C2\SC(=S)N(c3cccc(C(F)(F)F)c3)C2=O)cc1 [CFTRinh-172, reference compound] | ~50 |  |  |  |  |  |  | 
PA2934-His: purified C-terminal penta-histidine tagged PA2934 (Cif, CFTR inhibitory factor; SEQ ID NO:1) expressed in E. coli (protein, listed as Pseudomonas aeruginosa, C-terminal penta-His tag) MILDRLCRGLLAGIALTFSLGGFAAEEFPVPNGFESAYREVDGVKLHYVKGGQGPLVMLVHGFGQTWYEWHQLMPELAKRFTVIAPDLPGLGQSEPPKTGYSGEQVAVYLHKLARQFSPDRPFDLVAHDIGIWNTYPMVVKNQADIARLVYMEAPIPDARIYRFPAFTAQGESLVWHFSFFAADDRLAETLIAGKERFFLEHFIKSHSSNTEVFSERLLDLYARSYAKPHSLNASFEYYRALNESVRQNAELAKTRLQMPTMTLAGGGHGGMGTFQLEQMKAYADDVEGHVLPGCGHWLPEECAAPMNRLVIDFLSRGR |  | significantly decreases | > 60 | > 70 | ~30 | approximately 60% | capable of degrading this compound in a protein concentration dependent manner | ~25
